Assay results reported in PMC12126490, “The HP1 box of KAP1 organizes HP1α for silencing of endogenous retroviral elements in embryonic stem cells” (Nature Communications, 2025).

Tests used:
[1] = system: DNA-induced HP1α phase separated droplets; assay: in vitro droplet assay; details: 50 µM HP1α, 0.18 µM 601 DNA
Excerpt: For droplet assays, cDNA of full-length HP1α was cloned into a pET28 expression vector. His-tag fusion HP1α was expressed in E. coli and purified as in ref. [51]. cDNA of the KAP1FR fragment (aa 114–834) was cloned into a pCAG-GFP expression vector, and the P486A/V488A/L490A mutant of GFP-KAP1FR was generated using overlap extension PCR. Purification of GFP-KAP1FR proteins was described in ref. [52].
For the droplet assay, Widom 601 DNA was amplified by PCR using a plasmid coding for 12× 601 DNA with primers as follows: 601 DNA_F: […] and 601 DNA_R: TGCACAGGATGTATATATCTGACAC. HP1α was concentrated to ~10 µg/µl using Amicon concentrators. The buffer changes for both HP1α and GFP-KAP1FR solutions were carried out using Zeba™ Spin Desalting Columns with a buffer containing 20 mM HEPES at pH 7.2, 75 mM KCl, and 1 mM DTT. For visualization of His-tagged-HP1α within the droplets, 500 ng of protein was labeled with the 647 N fluorescent label using the Monolith NT™ Protein Labeling Kit RED-NHS from Nano Temper. To form HP1α droplets, 50 µM of HP1α was incubated with 0.18 µM of 601 DNA for 3 min and dropped into ibidi chamber (µ-Slide 18 Well). Subsequently, 50 ng of the labeled HP1α and 100 ng of GFP-KAP1FR (wild type or mutant) were added into HP1α/DNA droplets. The images of the droplets were collected using a Nikon TiE microscope equipped with a Yokogawa CSU-W1 spinning-disk confocal unit (50 μm pinhole size), an Andor Borealis illumination unit, Andor ALC600 laser beam combiner (405 nm/488 nm/561 nm/640 nm), Andor IXON 888 Ultra EMCCD camera, and a Nikon 100×/1.45 NA oil immersion objective. The size and intensity of HP1α phase-separated droplets were analyzed using ImageJ.

[2] = system: endogenous HP1α in KAP1^−/− ESCs; assay: immunofluorescence of endogenous HP1α; type: cell-based; details: KAP1^−/− mouse ESCs stably expressing the GFP-labeled construct, anti-HP1α antibody, DAPI
Experimental: The constructs coding for GFP-KAP1RF and the P486A/V488A/L490A mutant were transfected into 1 ×10^5 KAP1^−/− mouse ESCs using Lipofectamine 3000 (Invitrogen). Forty-eight hours post-transfection, cells were trypsinized and plated at a colony density in selection medium containing 10 μg/ml blasticidin (Thermo Fisher Sci) for one week. The selection process was repeated once to establish stable GFP-KAP1 expressing cell lines.
For immunostaining, mouse ESCs were cultured on Geltrex-coated coverslips (Life Technologies) in DMEM supplemented with 16% fetal bovine serum, 0.1 mM β-mercaptoethanol (Invitrogen), 2 mM L-glutamine, 1× MEM non-essential amino acids, 100 U/ml penicillin, 100 µg/ml streptomycin (PAA), 2i (1 μM PD032591 and 3 μM CHIR99021 (Axon Medchem, Netherlands) and 1000 U/ml recombinant LIF (Millipore). Coverslips were rinsed twice with PBS (pH 7.4; 140 mM NaCl, 2.7 mM KCl, 6.5 mM Na2HPO4, 1.5 mM KH2PO4), followed by fixation with 3.7% formaldehyde (Sigma) for 10 min. Fixed cells were washed three times (10 min each) with PBST (PBS + 0.01% Tween-20), permeabilized in 0.5% Triton X-100 for 10 min, and washed twice (10 min each) with PBST. Primary and secondary antibodies were prepared in blocking solution (PBST + 3% BSA). […]

B1: GFP-KAP1FR-PVLmut: P486A/V488A/L490A mutant of GFP-KAP1FR impaired in HP1α binding (protein)
chain: VVDCPVCKQQCFSKDIVENYFMRDSGSKAATDAQDANQCCTSCEDNAPATSYCVECSEPLCETCVEAHQRVKYTKDHTVRSTGPAKSRDGERTVYCNVHKHEPLVLFCESCDTLTCRDCQLNAHKDHQYQFLEDAVRNQRKLLASLVKRLGDKHATLQKSTKEVRSSIRQVSDVQKRVQVDVKMAILQIMKELNKRGRVLVNDAQKVTEGQQERLERQHWTMTKIQKHQEHILRFASWALESDNNTALLLSKKLIYFQLHRALKMIVDPVEPHGEMKFQWDLNAWTKSAEAFGKIVAERPGTNSTGPAPMAPPRAPGPLSKQGSGSSQPMEVQEGYGFGSGDDPYSSAEPHVSGVKRSRSGEGEVSGLMRKVARASAERLDLDLTADSQPPVFKVFPGSTTEDYNLIVIERGAAAAATGQPGTAPAGTPGAPPLAGMAIVKEEETEAAIGAPPTATEGPETKPVLMALAEGPGAEGPRLASPSGSTSSGLEVVAPEGTSAPGGGPGTLDDSATICRVCQKPGDLVMCNQCEFCFHLDCHLPALQDVPGEEWSCSLCHVLPDLKEEDGSLSLDGADSTGVVAKLSPANQRKCERVLLALFCHEPCRPLHQLATDSTFSLDQPGGTLDLTLIRARLQEKLSPPYSSPQEFAQDVGRMFKQFNKLTEDKADVQSIIGLQRFFETRMNEAFGDTKFSAVLVEPPPMSLPGAGLSSQELSGGPGDG
modifications: left off: GFP, end not stated, kept
B1 was tested, and the “sequestration of 647N labeled HP1α into droplets” value ([1]; 20 mM HEPES pH 7.2, 75 mM KCl, 1 mM DTT, 100 ng GFP-KAP1FR, 50 ng labeled HP1α) was “unable to sequester 647N labeled HP1α into the condensed phase”, the “localization of GFP-KAP1FR in droplets” value ([1]; confocal microscopy) was “concentrated at the periphery of the droplets” and the “distribution of endogenous HP1α (puncta)” value [2] was “more dispersed and formed smaller and fewer puncta”.
